The target in series [1] is BAF250a ARID WT (UniProt O14497 968-1143). The experiment in a line: ITC; 25 C; dH 1.51 kcal/mol; n 1.03; ITC: 50 mM NaH2PO4 pH 6, 0.025 mM EDTA, 25 C; 20 uM DNA in cell titrated with 200 uM protein. To be noted: protein: recombinant; tags: N-terminal 6xHis (pET28a); blunt; self-complementary palindrome, 2 copies; snap cooled on ice after heating.
The target in series [2] is BAF250a ARID V1067G (UniProt O14497 968-1143, V1067G). As to the kind of experiment: ITC; 25 C; dH -0.69 kcal/mol; n 1.04; ITC: 50 mM NaH2PO4 pH 6, 0.025 mM EDTA, 25 C; 20 uM DNA in cell titrated with 200 uM protein. To be noted: protein: recombinant; tags: N-terminal 6xHis (pET28a); blunt; self-complementary palindrome, 2 copies; snap cooled on ice after heating. On the technique in general: ITC needs no label: the signal is the heat of the interaction.
Sequence of BAF250a ARID V1067G (O14497 968-1143 V1067G): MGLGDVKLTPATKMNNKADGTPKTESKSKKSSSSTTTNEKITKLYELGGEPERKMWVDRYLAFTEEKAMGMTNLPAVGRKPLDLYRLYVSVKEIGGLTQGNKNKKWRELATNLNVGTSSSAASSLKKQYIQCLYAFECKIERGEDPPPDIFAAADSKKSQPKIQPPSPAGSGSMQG

We go through one molecule from publication PMC6181354, “Domain architecture of BAF250a reveals the ARID and ARM-repeat domains with implication in function and assembly of the BAF remodeling complex”.

Sequence of BAF250a ARID WT (O14497 968-1143): as the sequence (O14497 968-1143 V1067G) above, with G100V counted along it

B1: DD12 dsDNA (Dickerson dodecamer) (dsDNA)
DNA 1: CGCGAATTCGCG
DNA 2: CGCGAATTCGCG
By Kd is commonly meant the free concentration of one partner at which half of the binding sites on the other are occupied at equilibrium, for simple one-to-one binding. Turning to B1, the Kd turned out to be 71.9 ± 37.7 nM in series [1] and 694 ± 331 nM in series [2].
